Reference: PMC4245128, “Influence of Nonenzymatic Posttranslational Modifications on Constitution, Oligomerization and Receptor Binding of S100A12” (PLoS ONE, 2014)

B1: recombinant S100A12 (natural protein, UniProt P80511 1-92, looked up)
chain: MTKLEEHLEGIVNIFHQYSVRKGHFDTLSKGELKQLLTKELANTIKNIKDKAVIDEIFQGLDANQDEQVDFQEFISLVAIALKAAHYHTHKE
notes: N-terminal methionine only partially removed (M1S100A12 predominant); Mixture of chains with and without M1; The controls incubated without reagent are written as this molecule; also called M1S100A12; unincubated negative control; source: E. coli One Shot BL21 (DE3), purified (chitin column, on-column intein cleavage with DTT, dialysis, NAP-5)
B2: S100A12 incubated with 4 mM MGO (natural protein, UniProt P80511 1-92, looked up)
chain: B1 chain
modifications: hydroimidazolone, MGO-hemiaminal/CEA, argpyrimidine and tetrahydropyrimidine at R21; CEL at K3, K30, K34, K39, K46, K49, K51, K83, K91; carboxyethylation of the N-terminus; a +126 Da modification not assigned to a residue
notes: S100A12 as in m1, chemically modified with methylglyoxal; no signal of the native protein left in MALDI-TOF-MS; By SEC only a small part was hexamer; also called MGO-modified S100A12 (4 mM MGO); MGO-S100A12; source: E. coli One Shot BL21 (DE3), purified; incubated with 4 mM methylglyoxal at 37 °C for 1, 3 or 7 days, excess reagent removed by ultrafiltration
B3: S100A12 incubated with 400 µM MGO (natural protein, UniProt P80511 1-92, looked up)
chain: B1 chain
modifications: hydroimidazolone, MGO-hemiaminal/CEA, argpyrimidine and tetrahydropyrimidine at R21; CEL at K3, K30, K34, K39, K46, K49, K51, K83, K91; carboxyethylation of the N-terminus (partial)
notes: S100A12 as in m1, chemically modified with methylglyoxal; Heterogeneous mixture; by SEC a minor part was not present as hexamer; also called MGO-modified S100A12 (400 µM MGO); source: E. coli One Shot BL21 (DE3), purified; incubated with 400 µM methylglyoxal at 37 °C for 1, 3 or 7 days, excess reagent removed by ultrafiltration
B4: CEL-S100A12 prepared with 3 mM pyruvate (natural protein, UniProt P80511 1-92, looked up)
chain: B1 chain
modifications: N-epsilon-carboxyethyllysine (CEL) on all lysine residues; carboxyethylated N-terminus; no arginine modifications (CEL rate equal to or higher than in all MGO-modified samples)
notes: S100A12 as in m1, CEL-modified by reductive amination; Heterogeneous mixture; the extent of modification is not quantified; also called CEL-modified S100A12 (3 mM pyruvate); source: E. coli One Shot BL21 (DE3), purified; reductive amination with 3 mM pyruvate and NaBH3CN at 25 °C for 16 h, excess reagent removed by ultrafiltration
B5: S100A12 incubated with 40 µM MGO (natural protein, UniProt P80511 1-92, looked up)
chain: B1 chain
modifications: hydroimidazolone, MGO-hemiaminal/CEA, argpyrimidine and tetrahydropyrimidine at R21; CEL at K3, K30, K34, K39, K49, K83, K91; carboxyethylation of the N-terminus (partial)
notes: S100A12 as in m1, chemically modified with methylglyoxal; Heterogeneous mixture of modified and unmodified chains; also called MGO-modified S100A12 (40 µM MGO); source: E. coli One Shot BL21 (DE3), purified; incubated with 40 µM methylglyoxal at 37 °C for 1, 3 or 7 days, excess reagent removed by ultrafiltration
B6: CEL-S100A12 prepared with 15 mM pyruvate (natural protein, UniProt P80511 1-92, looked up)
chain: B1 chain
modifications: N-epsilon-carboxyethyllysine (CEL) on all lysine residues; carboxyethylated N-terminus; no arginine modifications (partial, modification rate rises with pyruvate)
notes: S100A12 as in m1, CEL-modified by reductive amination; Heterogeneous mixture; the extent of modification is not quantified; also called CEL-modified S100A12 (15 mM pyruvate); source: E. coli One Shot BL21 (DE3), purified; reductive amination with 15 mM pyruvate and NaBH3CN at 25 °C for 16 h, excess reagent removed by ultrafiltration
B7: CEL-S100A12 prepared with 30 mM pyruvate (natural protein, UniProt P80511 1-92, looked up)
chain: B1 chain
modifications: N-epsilon-carboxyethyllysine (CEL) on all lysine residues; carboxyethylated N-terminus; no arginine modifications (highest modification rate)
notes: S100A12 as in m1, CEL-modified by reductive amination; Heterogeneous mixture; the extent of modification is not quantified; also called CEL-modified S100A12 (30 mM pyruvate); CEL-S100A12 at the highest modification rate; source: E. coli One Shot BL21 (DE3), purified; reductive amination with 30 mM pyruvate and NaBH3CN at 25 °C for 16 h, excess reagent removed by ultrafiltration
B8: CEL-S100A12 prepared with 300 µM pyruvate (natural protein, UniProt P80511 1-92, looked up)
chain: B1 chain
modifications: N-epsilon-carboxyethyllysine (CEL) on all lysine residues; carboxyethylated N-terminus; no arginine modifications (partial, modification rate rises with pyruvate)
notes: S100A12 as in m1, CEL-modified by reductive amination; Heterogeneous mixture; the extent of modification is not quantified; also called CEL-modified S100A12 (300 µM pyruvate); source: E. coli One Shot BL21 (DE3), purified; reductive amination with 300 µM pyruvate and NaBH3CN at 25 °C for 16 h, excess reagent removed by ultrafiltration
B9: CEL-S100A12 prepared with 600 µM pyruvate (natural protein, UniProt P80511 1-92, looked up)
chain: B1 chain
modifications: N-epsilon-carboxyethyllysine (CEL) on all lysine residues; carboxyethylated N-terminus; no arginine modifications (partial, modification rate rises with pyruvate)
notes: S100A12 as in m1, CEL-modified by reductive amination; Heterogeneous mixture; the extent of modification is not quantified; also called CEL-modified S100A12 (600 µM pyruvate); source: E. coli One Shot BL21 (DE3), purified; reductive amination with 600 µM pyruvate and NaBH3CN at 25 °C for 16 h, excess reagent removed by ultrafiltration
B10: S100A12 incubated with 4 µM MGO (natural protein, UniProt P80511 1-92, looked up)
chain: B1 chain
modifications: hydroimidazolone (+54 Da) and MGO-hemiaminal/CEA (+72 Da) at R21 (partial, low modification degree)
notes: S100A12 as in m1, chemically modified with methylglyoxal; Heterogeneous mixture of modified and unmodified chains; also called MGO-modified S100A12 (4 µM MGO); source: E. coli One Shot BL21 (DE3), purified; incubated with 4 µM methylglyoxal at 37 °C for 1, 3 or 7 days, excess reagent removed by ultrafiltration

Target: the molecule itself
Assay: SEC; Superdex 75 10/300 GL, 10 mM Tris-HCl, 150 mM NaCl, 500 µM CaCl2, 10 µM ZnCl2, pH 7.4, 0.6 mL/min; calibrated with bovine serum albumin, carbonic anhydrase, cytochrome C and aprotinin
Conditions: not given

**Q.** For B1, which “stoichiometry N” value is on record?
**A.** The value was 6.

**Q.** Which “stoichiometry N” value does the source give for B2 here?
**A.** Its value is 6.

**Q.** Which “stoichiometry N” value does the source give for B3 here?
**A.** The value was 6.

Target: the molecule itself
Assay: SEC; data not shown; Superdex 75 10/300 GL, 10 mM Tris-HCl, 150 mM NaCl, 500 µM CaCl2, 10 µM ZnCl2, pH 7.4
Conditions: not given

**Q.** B4 was tested. Which “stoichiometry N” value did it give?
**A.** Its value is 6.

**Q.** With B5 as the binder, how does the “stoichiometry N” value read?
**A.** The value was 6.

**Q.** For B6, which “stoichiometry N” value is on record?
**A.** The value was 6.

**Q.** How did the “stoichiometry N” value turn out when B7 was run?
**A.** Its value is 6.

**Q.** With B8 as the binder, how does the “stoichiometry N” value read?
**A.** The value was 6.

**Q.** B9 was tested. Which “stoichiometry N” value did it give?
**A.** Its value is 6.

**Q.** For B10, which “stoichiometry N” value is on record?
**A.** Its value is 6.

Target: T1, recombinant human RAGE Fc chimera (human, UniProt Q15109 23-342)
T1 construct: receptor for advanced glycation end-products (RAGE), human; No catalogue number is printed; also called receptor for advanced glycation end-products; recombinant RAGE; source: bought: R&D Systems, from a mouse myeloma cell line
Assay: SPR; Biacore X100, 25 °C, 30 µL/min; 7200 RU of RAGE Fc chimera amine-coupled to a CM5 chip; S100A12 samples injected (180 s association, 180 s dissociation); HBS-P (10 mM HEPES, 150 mM NaCl, 0.05% surfactant 20, pH 7.4) with 500 µM CaCl2 and 10 µM ZnCl2; reference cell subtracted; response given relative to the unincubated negative control
Conditions: both partners purified

T1 sequence (Q15109 23-342, change not shown): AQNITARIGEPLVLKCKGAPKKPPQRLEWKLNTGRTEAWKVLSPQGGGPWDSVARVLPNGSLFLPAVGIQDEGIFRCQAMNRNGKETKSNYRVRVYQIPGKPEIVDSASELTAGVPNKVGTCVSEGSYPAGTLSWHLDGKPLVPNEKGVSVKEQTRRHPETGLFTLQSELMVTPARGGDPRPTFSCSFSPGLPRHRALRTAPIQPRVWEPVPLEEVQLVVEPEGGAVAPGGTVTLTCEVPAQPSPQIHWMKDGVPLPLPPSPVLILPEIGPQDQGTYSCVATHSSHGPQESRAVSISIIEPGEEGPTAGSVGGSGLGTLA

**Q.** How did the “percent binding (of the control)” value turn out when B4 was run?
**A.** Its value is 80.9%.

**Q.** With B7 as the binder, how does the “percent binding (of the control)” value read?
**A.** The value was 34%.
